For experiment [1], the target named is Gαo with the Gln52 mutation. In words: co-IP; N2a cells co-transfected 24 h with Gαo-GFP constructs and His6-RGS19 (1:1) or mRFP-Gβ1/mRFP-Gγ3 (1:1:1); lysate in GST-lysis buffer (20 mM Tris-HCl pH 8.0, 1% Triton X-100, 10% glycerol in PBS); Gαo-GFP precipitated with GST-tagged GFP nanobody and glutathione Sepharose 4B overnight at 4 °C; Western blot against GFP, mRFP, His6; blots quantified, normalised to the precipitated Gαo, 5 experiments. (In general: A western blot detects proteins with antibodies after separation by electrophoresis.)

The target of experiment [2] is Gαo[Gln52Pro] and Gαo[Gln52Arg]. The description is as above.

In experiment [1], “Gβ1γ3 heterodimer (mRFP-Gβ1 and mRFP-Gγ3) (from UniProt P62873 1-340; P63215 1-75) (complex)” gave a fold reduction of co-precipitation against wild-type Gαo of 2 to 4 fold.

B1: His6-RGS19 (natural protein)
chain: MPTPHEAEKQITGPEEADRPPSMSSHDTASPAAPSRNPCCLCWCCCCSCSWNQERRRAWQASRESKLQPLPSCEVCATPSPEEVQSWAQSFDKLMHSPAGRSVFRAFLRTEYSEENMLFWLACEELKAEANQHVVDEKARLIYEDYVSILSPKEVSLDSRVREGINKKMQEPSAHTFDDAQLQIYTLMHRDSYPRFLSSPTYRALLLQGPSQSSSEA
B1 registered a fold reduction of co-precipitation against wild-type Gαo in experiment [2] of 2 to 3 fold.

The values are drawn from paper PMC8535069.
